Measured values taken from PMC6330308, “Light-Induced Thiol Oxidation of Recoverin Affects Rhodopsin Desensitization” (Frontiers in Molecular Neuroscience, 2018).

B1: Recoverin mutant C39D (natural protein, bovine)
chain: GNSKSGALSKEILEELQLNTKFTEEELSSWYQSFLKEDPSGRITRQEFQTIYSKFFPEADPKAYAQHVFRSFDANSDGTLDFKEYVIALHMTSAGKTNQKLEWAFSLYDVDGNGTISKNEVLEIVTAIFKMISPEDTKHLPEDENTPEKRAEKIWGFFGKKDDDKLTEKEFIEGTLANKEILRLIQFEPQKVKEKLKEKKL
modifications: N-terminal myristoyl group (degree of myristoylation more than 95%)

Key:
[1] = biological target: GRK1 (rhodopsin kinase) (bovine (endogenous in ROS)) (UniProt P28327)
[2] = biological target: N-terminal domain of GRK1 (amino acids Met1-Gly183) fused with glutathione-S-transferase (UniProt P28327); test: SPR; GST-fused N-GRK1 or 1-25GRK1 immobilised by amine coupling on ProteOn GLH chip; recoverin forms 1-40 uM as analyte; 25°C; 10 mM HEPES, 150 mM NaCl, 0.05% TWEEN 20, pH 7.4, 1 mM CaCl2, 2 mM MgCl2; global fit to heterogeneous ligand model
[3] = biological target: N-terminal fragment of GRK1 (amino acids M1-S25) fused with glutathione-S-transferase (UniProt P28327); test: as above
[4] = biological target: T1, Recombinant myristoylated bovine recoverin (reduced monomer) (bovine, UniProt P21457 2-202, N-terminal myristoyl group (degree of myristoylation more than 95%)); test: as above; conditions: both partners purified
T1 construct: recoverin, bovine, recombinant wild type, myristoylated, C39 thiol reduced; Myristoylation implies that the initiator Met is removed and Gly2 carries the myristoyl group (surmised); also called RmRec; reduced monomer of recombinant wild type recoverin; source: recombinant, prepared according to previously published procedure (Zernii et al., 2011)
T1 sequence: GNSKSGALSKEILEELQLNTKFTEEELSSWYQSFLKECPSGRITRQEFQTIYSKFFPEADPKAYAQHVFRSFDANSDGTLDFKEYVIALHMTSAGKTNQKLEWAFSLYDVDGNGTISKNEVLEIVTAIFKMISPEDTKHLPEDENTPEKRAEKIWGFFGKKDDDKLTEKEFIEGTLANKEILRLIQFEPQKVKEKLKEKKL

[5] = biological target: T2, Oxidized monomer of recombinant wild type recoverin (bovine, UniProt P21457 2-202, N-terminal myristoyl group; C39 thiol oxidized (sulfenic/sulfinic acid; Figure 9 legend: C39 converted into sulfinic acid)); test: as above; conditions: both partners purified
T2 construct: recoverin, bovine, recombinant wild type, myristoylated, monomer with oxidized C39; also called OmRec; thiol-oxidized monomer of recoverin; source: prepared from RmRec by incubation with 0.005% H2O2 at 30°C for 5 h, separated by gel-filtration (Superdex 75)
T2 sequence: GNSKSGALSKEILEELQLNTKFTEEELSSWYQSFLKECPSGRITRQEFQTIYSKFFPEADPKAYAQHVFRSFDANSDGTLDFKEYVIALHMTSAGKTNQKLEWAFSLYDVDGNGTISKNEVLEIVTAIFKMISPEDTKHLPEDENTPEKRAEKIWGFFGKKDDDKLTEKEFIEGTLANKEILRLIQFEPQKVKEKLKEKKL

Recoverin mutant C39D = biological target: B1; test: as above; conditions: both partners purified
GRK1 (rhodopsin kinase) = biological target: T3, GRK1 (rhodopsin kinase) (bovine (endogenous in ROS), UniProt P28327 1-561); test: cell-based or functional assay
T3 sequence (looked up): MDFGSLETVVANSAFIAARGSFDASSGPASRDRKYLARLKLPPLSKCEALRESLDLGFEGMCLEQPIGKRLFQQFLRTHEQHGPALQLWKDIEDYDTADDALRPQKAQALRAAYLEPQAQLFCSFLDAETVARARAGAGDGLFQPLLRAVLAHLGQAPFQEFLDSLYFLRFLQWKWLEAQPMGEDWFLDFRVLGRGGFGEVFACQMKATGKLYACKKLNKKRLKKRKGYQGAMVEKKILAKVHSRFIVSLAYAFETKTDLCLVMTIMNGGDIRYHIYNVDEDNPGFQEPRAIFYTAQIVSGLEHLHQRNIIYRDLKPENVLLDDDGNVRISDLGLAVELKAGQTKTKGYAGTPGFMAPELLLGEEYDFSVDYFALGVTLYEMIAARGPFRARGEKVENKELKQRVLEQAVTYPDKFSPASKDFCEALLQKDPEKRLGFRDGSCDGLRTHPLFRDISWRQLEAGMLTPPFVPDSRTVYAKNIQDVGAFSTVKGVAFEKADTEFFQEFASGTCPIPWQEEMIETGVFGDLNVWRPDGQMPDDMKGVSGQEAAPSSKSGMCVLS

Row | Molecule | Kd [4] | Kd [5] | Kd (Recoverin mutant C39D) | other results
1 | Disulfide dimer of recombinant wild type recoverin (from UniProt P21457 2-202) (complex) | – | – | – | inhibition of GRK1 in rhodopsin phosphorylation assay, 20 uM dRec, 0.01 uM free Ca2+ [1]: 40%; inhibition of GRK1 in rhodopsin phosphorylation assay, 20 uM dRec, 200 uM free Ca2+ [1]: 70%; Kd [2]: 31.3 µM; Kd [3]: 31.2 µM
2 | N-terminal domain of GRK1 (amino acids Met1-Gly183) fused with glutathione-S-transferase (domain or fragment, UniProt P28327 1-183, looked up, GRK1 (rhodopsin kinase), N-terminal domain, amino acids Met1-Gly183; also called N-GRK1; N-terminal domain of rhodopsin kinase; source: obtained according to previously published procedure (Grigoriev et al., 2012)) MDFGSLETVVANSAFIAARGSFDASSGPASRDRKYLARLKLPPLSKCEALRESLDLGFEGMCLEQPIGKRLFQQFLRTHEQHGPALQLWKDIEDYDTADDALRPQKAQALRAAYLEPQAQLFCSFLDAETVARARAGAGDGLFQPLLRAVLAHLGQAPFQEFLDSLYFLRFLQWKWLEAQPMG | 5.35 µM | 31.3 µM | 50.2 µM | –
3 | MDFGSLETVVANSAFIAARGSFDAS (domain or fragment, UniProt P28327 1-25, looked up, GRK1 (rhodopsin kinase), fragment M1-S25; also called 1-25GRK1; 1-25RK; source: obtained according to previously published procedure (Grigoriev et al., 2012)) [N-terminal fragment of GRK1 (amino acids M1-S25) fused with glutathione-S-transferase] | 10.5 µM | 16 µM | 31.3 µM | –
4 | B1 | – | – | – | inhibition of GRK1 in rhodopsin phosphorylation assay, 40 uM C39D, 200 uM free Ca2+; decline of inhibitory efficiency against RmRec (GRK1 (rhodopsin kinase)): ~2 fold
